Measurements as given in publication PMC10684826.
Like-named read-outs stand apart in the source and are kept apart here.

Experiments:
Test in all cases: EMSA
SisSSB deltaC29 = molecular target: T1, SisSSB deltaC29 (Saccharolobus islandicus REY15A, UniProt F0NBA9 1-119)
T1 sequence: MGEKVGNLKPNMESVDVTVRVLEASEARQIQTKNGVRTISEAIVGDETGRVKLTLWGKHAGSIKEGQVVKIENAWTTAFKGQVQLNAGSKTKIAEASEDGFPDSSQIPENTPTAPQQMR

SisSSB deltaC53 = molecular target: T2, SisSSB deltaC53 (Saccharolobus islandicus REY15A, UniProt F0NBA9 1-95)
T2 sequence: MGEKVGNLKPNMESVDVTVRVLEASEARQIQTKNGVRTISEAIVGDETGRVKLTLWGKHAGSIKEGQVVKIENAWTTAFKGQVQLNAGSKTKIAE

AhoSSB [1] = molecular target: T3, AhoSSB (Acidianus hospitalis W1, UniProt F4B912 1-142)
T3 sequence: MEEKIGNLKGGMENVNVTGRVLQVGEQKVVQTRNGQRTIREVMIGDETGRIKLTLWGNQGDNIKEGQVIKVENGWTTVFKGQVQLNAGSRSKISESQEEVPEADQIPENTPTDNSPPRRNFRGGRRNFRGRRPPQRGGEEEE

EcoSSB = EcoSSB (Escherichia coli, UniProt P0AGE0 1-178)
SheSSB [2] = molecular target: T4, SheSSB (Staphylothermus hellenicus DSM 12710, UniProt D7D8N7 1-151)
T4 sequence: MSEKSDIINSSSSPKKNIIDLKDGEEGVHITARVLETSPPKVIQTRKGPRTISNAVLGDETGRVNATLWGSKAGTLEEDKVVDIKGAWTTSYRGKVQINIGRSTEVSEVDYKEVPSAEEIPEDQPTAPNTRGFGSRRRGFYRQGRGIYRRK

SacSSB [3] = molecular target: T5, SacSSB (Sulfolobus acidocaldarius DSM 639, UniProt Q4JA43 1-146)
T5 sequence: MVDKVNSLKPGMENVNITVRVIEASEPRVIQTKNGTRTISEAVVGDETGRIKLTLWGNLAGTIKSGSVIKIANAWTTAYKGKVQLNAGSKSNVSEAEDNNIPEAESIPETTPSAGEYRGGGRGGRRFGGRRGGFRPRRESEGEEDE

AhoSSB [4] = molecular target: T3, AhoSSB; remark: listed apart in the source
SheSSB [5] = molecular target: T4, SheSSB; remark: listed apart in the source
SacSSB [6] = molecular target: T5, SacSSB; remark: listed apart in the source

Measured: binding result

Sequence of EcoSSB (P0AGE0 whole entry): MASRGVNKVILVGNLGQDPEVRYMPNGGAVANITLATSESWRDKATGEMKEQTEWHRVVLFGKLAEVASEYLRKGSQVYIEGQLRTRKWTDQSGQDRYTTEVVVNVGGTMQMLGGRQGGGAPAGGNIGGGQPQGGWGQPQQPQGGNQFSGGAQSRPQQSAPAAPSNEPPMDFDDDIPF

B1: Fam-ssDNA 40 nt (ssDNA)
DNA: AGGGTTCTTTGTGGCGGCGTCATCTGTGCTTCCCTATCCA
not listed: AhoSSB [4] | SheSSB [5] | SacSSB [6]
binds: all other assays above

B2: Fam-ssRNA 40 nt (ssRNA)
RNA: AGGGUUCUUUGUGGCGGCGUCAUCUGUGCUUCCCUAUCCA
binds: SisSSB deltaC29 | SisSSB deltaC53 | AhoSSB [4] | SheSSB [5] | SacSSB [6]
